Experimental data as given in paper PMC8012256.

Target: cross-linked CA A14C/E45C/W184A/M185A hexamer (HIV-1)
Test: crystal structure

Sec24C(228–242) peptide (from UniProt P53992-1 228-242)
stoichiometry N (Sec24C(228–242) molecules per CA hexamer): 6

cross-linked CA A14C/E45C/W184A/M185A hexamer (complex)
stoichiometry N: 6
